According to US20090246756A1, “Thermostable polypeptide having polynucleotide kinase activity and/or phosphatase activity” (Prokaria Ehe, priority 2004, published 2009):
“And” between values parts separate entries of the source, which are not always exact repeats. Identical values can stand only once. “Also recorded” adds a separate entry of the source.

Legend:
d(A20) = test: 5′ kinase reaction, ssDNA oligomer titration and labelling; assay type: biochemical
Method: (§1) The standard PNK assay developed by Richardsson (Richardson, C. C. (1965) Proc Natl Acad Sci USA 54, 158-165) that measures conversion of γ-32P-ATP, was used for characterization of the RM378 PNK with some minor modifications. Standard reaction conditions were: 50 mM MOPS buffer pH 8.5, 1 mM DTT, 10 mM MgCl2, 25 μg/ml BSA, 1 mM spermidine and 5% PEG6000, 100 μM ATP (mixture of normal and γ-32P-ATP) and 0.5 mg/ml partial mircococcal nuclease digested calf thymus DNA or 50-100 μM DNA/RNA oligomers, and 0.0001-0.001 mg/ml PNK enzyme, incubated at 70° C. for 15-30 minutes.
(§2) Titration curves for ATP, r(A20) and single stranded d(A20) oligomers were done to calculate Km values and find the maximum velocity of the 5′ kinase reaction. The results are shown for ATP in FIG. 4B and for, r(A20) and d(A20) in FIGS. 4C.
(§3) To investigate the completeness of the 5′ kinase reaction, both r(A20) and d(A20) oligos at 20 μM concentration were labeled in a 10 μM ^32P labeled ATP mixture under optimal conditions. […] The RM378 PNK is therefore an excellent enzyme for nucleic acid labeling at elevated temperatures.

[1] = system: partial mircococcal nuclease digested calf thymus DNA or DNA/RNA oligomers; test: 5′ kinase standard PNK assay (conversion of γ-32P-ATP); assay type: biochemical; conditions: for increase in 5′ kinase activity by PEG6000: 5-10% PEG6000; for 5′ kinase activity with Mn^2+ compared to Mg^2+: divalent cation essential
Method: The 5′-kinase activity may be determined by an appropriate assay such as an assay developed for T4 PNK that measures conversion of ATP labelled with radioactive gamma-phosphate group (Richardson, C. C. (1965) Proc Natl Acad Sci U.S.A. 54, 158-165). The standard assay may be modified according to the requirement of a specific PNK. For example, for RM378 PNK the typical reaction conditions are 50 mM MOPS buffer pH 8.5, 1 mM DTT, 10 mM MgCl2, 25 μg/ml BSA, 1 mM spermidine and 5% PEG6000, 100 μM ATP (mixture of normal and γ-32P-ATP) and 0.5 mg/ml partial micrococcal nuclease digested calf thymus DNA or 50-100 μM DNA/RNA oligomers, and 0.0001-0.001 mg/ml PNK enzyme. The reaction mixture is then incubated at 70° C. for 15-30 minutes.
as §1

d(A15)—PO4^− oligomer = test: 3′ phosphohydrolase comparison of RM378 and T4 PNK on 3′ phosphorylated oligomer; assay type: biochemical; conditions: 0.1 mM substrate, 20 units enzyme, pH 6, 2 hours, 37° C. (T4) / 70° C. (RM378)
Method: (§4) Comparison was done between RM378 and T4 PNK using CAMP, 3′TMP and d(A15)—PO4^− oligomer as substrates, all in 0.1 mM concentration with 20 units of the enzymes in 20 μL reaction volumes using potassium acetate buffer pH 6 with both Mg^2+ and Mn^2+ as the divalent cation. The reactions were carried out for 2 hours at 37° C. and 70° C. for T4 and RM378 PNK, respectively.

[2] = 3′ phosphohydrolase assay (phosphate release, Biomol Green) on CAMP; conditions: for 3′ phosphohydrolase activity on CAMP, enzyme comparison: 20 units enzyme, pH 6, 2 hours, 37° C. (T4) / 70° C. (RM378)
Method: (§5) For example, the following assay can be used: in a potassium acetate buffer, pH 6.0, with 5 mM MnCl2, 1 mM DTT, and 10 mM KCl2, the enzyme is incubated (at 0.05 mg enzyme/ml) with substrate, such as 0.1-5 mM 3′-thymidine mono-phosphate (3′-TMP) or cyclic 2′-3′cyclic adenosine mono-phosphate (cAMP), for 30-60 minutes at suitable temperature, for example at 70-75° C. for RM378 kinase. The reaction is then quenched by adding 90 μL of Biomol Green reagent (Biomol Research Laboratories, Plymouth Meeting, Pa.) to 10 μL reaction. The release of phosphate is then measured at A 620 nm in a spectrophotometer and compared to a phosphate standard curve.
(§6) After determination of pH, cation and apparent temperature optimum, the standard phosphohydrolase assay was: Potassium acetate buffer pH 6.0, 5 mM MnCl2, 1 mM DTT, 10 mM KCl2, 0.1-5 mM CAMP and 0.05 mg/ml PNK. Reaction time was 30-60 minutes at 70-75° C. The reaction was quenched by adding 90 μL of Biomol Green reagent (Biomol Research Laboratories, Plymouth Meeting, Pa.) to 10 μL reaction. The release of phosphate was measured at A 620 nm in a Sunrise Absorbance Reader (Tecan Group Ltd, Maennedorf, Switzerland) and compare to a phosphate standard curve.
(§7) The characterization of the phosphohydrolase activity was done using two substrates: 3′-thymidine mono-phosphate (3′TMP) and cyclic 2′-3′cyclic adenosine mono-phosphate (cAMP). Determination of pH optimum was done with MOPS and potassium acetate buffers using 0.1 mM CAMP and 0.05 mg/ml PNK, apparent T optimum was also done under the standard condition by assaying at different temperatures. Protein concentration curve was done with CAMP at pH 6 in K-acetate buffer and different amount of PNK. Substrate concentration curves were done for CAMP and 3′TMP, under the standard conditions using different amount of substrates.
as §4

[3] = 5′ kinase reaction, ATP titration; assay type: biochemical; conditions: Lineweaver-Burk plot
Method: as §1, §2

[4] = system: partial mircococcal nuclease digested calf thymus DNA or DNA/RNA oligomers; test: 5′ kinase standard PNK assay (conversion of γ-32P-ATP); assay type: biochemical; conditions: standard assay at different temperatures for one hour
ssDNA oligomer = test: Effect of ADP on 5′ kinase, dephosphorylation and phosphate exchange reactions; assay type: biochemical; conditions: for effect of ADP on 5′ kinase activity: 5′ hydroxylated ssDNA, increasing ADP; for phosphate exchange reaction on 5′ phosphorylated oligomer: independent of ADP concentration, 0 to 1 mM ADP; for effect of ADP on dephosphorylation of 5′ phosphorylated ssDNA: only ADP and 32P-labeled oligomer, no ATP
Method: Effect of ADP was tested on three kind of reactions i) exchange reaction ii) 5′ kinase reaction and iii) dephosphosphorylation. This was done, by titrating different amounts of ADP to reaction mixtures containing i) 10 μM phosphorylated ssDNA oligo 10 μM γ-^32P-ATP, ii) 10 μM 5′ hydroxylated ssDNA oligomer with 10 μM γ-^32P-ATP, and iii) with 5′ ^32P-labeled ssDNA oligomer without ATP.
The effect of addition of ADP to 5′ kinase activity, dephosphorylation, and phosphate exchange was studied in controlled assay with 10:10 μM ATP and oligomer and by titrating the ADP concentration. […] On the other hand, when labelling an already phosphorylated oligomer, the exchange reaction was overall about 5-8% independent of the ADP concentration, from 0 to 1 mM ADP.

[5] = 3′ phosphohydrolase assay (phosphate release, Biomol Green) on 3′TMP; assay type: biochemical
Method: as §5, §6, §7
Comparison was done between RM378 and T4 PNK using CAMP, 3′TMP and d(A15)—PO4^− oligomer as substrates, all in 0.1 mM concentration with 20 units of the enzymes in 20 μL reaction volumes using potassium acetate buffer pH 6 with both Mg^2+ and Mn^2+ as the divalent cation. […]

r(A20) = test: 5′ kinase reaction, RNA oligomer titration and labelling; assay type: biochemical
Method: as §1, §2, §3

B1: RM378 PNK: novel thermostable polynucleotide kinase (5′-kinase and 3′-phosphatase activity) from the thermophilic bacteriophage RM378, SEQ ID NO: 2 (protein)
chain: MPNFITNIRNSRFKEVLTEMYHCHHESEYHLEGNVLNHTLMVLQVVDKITADHREQTNLSLTALLHDSGKPYTRVVERGRVMFPGHEGVSTYIAPLLLCEVLRDSLITPKDAIQILYGVNYHMLHWKNPNLFMRLFTEMVNYTCLYNFLKKFNQCDLKGRVSTKPQKQEFPVIHYFENTPIGTVERHVYFMIGVPGSGKSTFLQKVGEGAIVSRDEIMMEYAAEIGITGDYNTVFREIHNNPMHKTKVNNRYMNAFRKAVEENEKVFVDATNMSYKSRRRFYNALRRDIAETVGYHYIVMLPDYFTCIERAENREGKSISREVVTDIARSLLLPCREHPNSIDTTIYMSDGHDEHVLRVAW
modifications: Bacteriophage RM378; HDmotif (66)..(67) HD motif is characteristic of HD phophohydrolase family of enzymes
completeness of 5′ kinase labelling reaction, DNA (d(A20); 20 μM d(A20), 10 μM 32P-labeled ATP, 70° C., 30 min): the ATP was depleted; also recorded: completely depleted the ATP when using 5 U per reaction
Vmax of 5′ kinase reaction on d(A20) (d(A20); Example 2): 220 μmolmg^−1h^−1
Vmax of 5′ kinase activity on DNA (d(A20); FIG. 6C legend): 160 µmol/h/mg
5′ kinase activity on ssDNA compared to RNA (d(A20); d(A20) versus r(A20)): somewhat better activity on ssDNA when compared to RNA
Km (d(A20); single stranded d(A20), read-out: Km for DNA, 5′ kinase reaction): ~1.3 µM and 1.5 µM
effect of spermidine on 5′ kinase activity [1]: limited
increase in 5′ kinase activity by PEG6000 [1]: multi-fold
increase in 5′ kinase activity by PEG6000 ([1]; listed as PNK): 3-4 fold and 4 fold
Mg^2+ concentration at which maximum 5′ kinase activity was reached ([1]; Mg^2+): 100 µM
Mn^2+ concentration at which maximum 5′ kinase activity was reached ([1]; Mn^2+): 10 µM
effect of Mn^2+ concentration over 100 μM on 5′ kinase reaction ([1]; Mn^2+ over 100 μM): severely inhibited the reaction
effect of PEG6000 at higher concentrations on 5′ kinase reaction ([1]; PEG6000 above 5-10%): inhibited the 5′ kinase reaction at higher concentrations
effect of NaCl and KCl on PNK activity ([1]; concentrations higher than 10 mM): steady decrease in activity
5′ kinase activity with Mn^2+ compared to Mg^2+ [1]: both Mg2+ and Mn2+ work equally well
5′ kinase activity with Mn^2+ compared to Mg^2+ ([1]; listed as PNK): Activity was similar for Mn^2+ and Mg^2+
3′ phosphohydrolase activity on d(A15)-3′PO4− oligomer, enzyme comparison (d(A15)—PO4^− oligomer): no detectable activity on the oligomer
3′ phosphohydrolase activity on d(A15)-3′PO4− oligomer, enzyme comparison (d(A15)—PO4^− oligomer; listed as RM378): no activity on the oligomer
pH range with >40% 3′ phosphohydrolase activity [2]: 5.5-7.0 pH
temperature range with good (>50%) 3′ phosphohydrolase activity [2]: 65-80 °C
3′ phosphohydrolase activity on CAMP, enzyme comparison ([2]; 0.1 mM substrate): much better activity on the CAMP versus 3′-TMP
3′ phosphohydrolase activity on CAMP, enzyme comparison ([2]; 0.1 mM substrate, listed as RM378): high activity on CAMP
higher 3′ phosphohydrolase activity with Mn^2+ than Mg^2+ ([2]; CAMP as substrate, 1 mM cation): 5-10 fold
3′ phosphohydrolase activity in presence of Mg2+, enzyme comparison ([2]; Mg2+ as cation, 0.1 mM substrate): little activity in presence of Mg2+
apparent temperature optimum of 3′ phosphohydrolase activity ([2]; measured for one hour): 75 °C
pH optimum of 3′ phosphohydrolase activity ([2]; potassium acetate pH 4-6 and MOPS pH 6-9, 0.1 mM CAMP, 0.05 mg/ml PNK): ~6 pH
Km ([2]; read-out: Km for CAMP, 3′ phosphohydrolase reaction, standard conditions, Mn2+): 700 µM
Vmax of 3′ phosphohydrolase reaction on CAMP ([2]; standard conditions, Mn2+): 13.5 μmolmg^−1h^−1
3′ phosphohydrolase activity on CAMP relative to 3′TMP ([2]; substrate titration, standard assay conditions with Mn2+): much more phosphohydrolase activity on CAMP compared to 3′TMP; also recorded: several-fold higher on CAMP than 3′TMP
Km [3]: 20 µM
apparent temperature optimum of 5′ kinase activity [4]: 65-70 °C
effect of ADP on 5′ kinase activity (ssDNA oligomer): inhibited as the concentration of ADP increased
effect of ADP on 5′ kinase activity (ssDNA oligomer; listed as PNK): decreased with increasing ADP concentration
ADP concentration giving complete inhibition of 5′ kinase activity (ssDNA oligomer; 10:10 μM ATP and oligomer): 50 µM
phosphate exchange reaction on 5′ phosphorylated oligomer (ssDNA oligomer): 3-8%
phosphate exchange reaction on 5′ phosphorylated oligomer (ssDNA oligomer; listed as PNK): 5-8%
effect of ADP on dephosphorylation of 5′ phosphorylated ssDNA (ssDNA oligomer): The dephosphorylation increased as the ADP concentration increased
effect of ADP on dephosphorylation of 5′ phosphorylated ssDNA (ssDNA oligomer; listed as PNK): the level of dephosphorylation increased as the ADP concentration was increased
3′ phosphohydrolase activity on 3′TMP, enzyme comparison ([5]; 0.1 mM substrate, 20 units enzyme, pH 6, 2 hours, 37° C. (T4) / 70° C. (RM378)): some activity on 3′TMP
Vmax of 3′ phosphohydrolase reaction on 3′TMP ([5]; standard conditions, Mn2+): 1.5 μmolmg^−1h^−1
Km ([5]; standard conditions, Mn2+, read-out: Km for 3TMP, 3′ phosphohydrolase reaction): 60 µM
completeness of 5′ kinase labelling reaction, RNA (r(A20); 20 μM r(A20), 10 μM 32P-labeled ATP, 70° C., 30 min): the ATP was depleted; also recorded: completely depleted the ATP when using 5 U per reaction
Vmax of 5′ kinase reaction on r(A20) (r(A20); Example 2): 160 μmolmg^−1h^−1
Vmax of 5′ kinase activity on RNA (r(A20); FIG. 6C legend): 220 µmol/h/mg
Km (r(A20); r(A20)): ~1.5 µM and 1.3 µM
